Test results from IntAct's records for PubMed 16902405.
One block for each substance: values may come before it.

Experiments:
rab5a_human RAB5A [1] = biological target: rab5a_human RAB5A (UniProt P20339)
rab6a_human RAB6A [2] = biological target: rab6a_human RAB6A (UniProt P20340)
rab1a_human RAB1A [3] = biological target: rab1a_human RAB1A (UniProt P62820)
clh1_human CLTC [4] = biological target: clh1_human CLTC (UniProt Q00610)
rab1a_human RAB1A [5] = biological target: rab1a_human RAB1A (UniProt P62820); remark: listed apart in the source
rab6a_human RAB6A [6] = biological target: rab6a_human RAB6A (UniProt P20340); remark: listed apart in the source
rab5a_human RAB5A [7] = biological target: rab5a_human RAB5A (UniProt P20339); remark: listed apart in the source
clh1_human CLTC [8] = biological target: clh1_human CLTC (UniProt Q00610); remark: listed apart in the source
rab6a_human RAB6A [9] = biological target: rab6a_human RAB6A (UniProt P20340); remark: listed apart in the source
clh1_human CLTC [10] = biological target: clh1_human CLTC (UniProt Q00610); remark: listed apart in the source
rab6a_human RAB6A [11] = biological target: rab6a_human RAB6A (UniProt P20340); remark: listed apart in the source
rab1a_human RAB1A [12] = biological target: rab1a_human RAB1A (UniProt P62820); remark: listed apart in the source
rab5a_human RAB5A [13] = biological target: rab5a_human RAB5A (UniProt P20339); remark: listed apart in the source
rab6a_human RAB6A [14] = biological target: rab6a_human RAB6A (UniProt P20340); remark: listed apart in the source
rab1a_human RAB1A [15] = biological target: rab1a_human RAB1A (UniProt P62820); remark: listed apart in the source
rab5a_human RAB5A [16] = biological target: rab5a_human RAB5A (UniProt P20339); remark: listed apart in the source
rab6a_human RAB6A [17] = biological target: rab6a_human RAB6A (UniProt P20340); remark: listed apart in the source

Chain of rab5a_human RAB5A (P20339 whole entry): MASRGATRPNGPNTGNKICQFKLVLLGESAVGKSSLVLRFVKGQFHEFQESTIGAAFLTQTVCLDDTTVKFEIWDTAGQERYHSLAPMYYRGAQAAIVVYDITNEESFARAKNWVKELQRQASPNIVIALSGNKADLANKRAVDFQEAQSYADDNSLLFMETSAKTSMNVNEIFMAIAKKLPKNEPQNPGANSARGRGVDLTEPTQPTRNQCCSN
Chain of rab1a_human RAB1A (P62820 whole entry): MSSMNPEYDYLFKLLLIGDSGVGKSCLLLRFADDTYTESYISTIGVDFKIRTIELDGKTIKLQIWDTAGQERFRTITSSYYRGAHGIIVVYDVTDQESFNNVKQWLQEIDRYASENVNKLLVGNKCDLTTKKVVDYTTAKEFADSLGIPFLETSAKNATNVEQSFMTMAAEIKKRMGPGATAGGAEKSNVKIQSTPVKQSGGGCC
Chain of Inositol polyphosphate 5-phosphatase OCRL (Homo sapiens), Q01968 D555E (Q01968 whole entry D555E): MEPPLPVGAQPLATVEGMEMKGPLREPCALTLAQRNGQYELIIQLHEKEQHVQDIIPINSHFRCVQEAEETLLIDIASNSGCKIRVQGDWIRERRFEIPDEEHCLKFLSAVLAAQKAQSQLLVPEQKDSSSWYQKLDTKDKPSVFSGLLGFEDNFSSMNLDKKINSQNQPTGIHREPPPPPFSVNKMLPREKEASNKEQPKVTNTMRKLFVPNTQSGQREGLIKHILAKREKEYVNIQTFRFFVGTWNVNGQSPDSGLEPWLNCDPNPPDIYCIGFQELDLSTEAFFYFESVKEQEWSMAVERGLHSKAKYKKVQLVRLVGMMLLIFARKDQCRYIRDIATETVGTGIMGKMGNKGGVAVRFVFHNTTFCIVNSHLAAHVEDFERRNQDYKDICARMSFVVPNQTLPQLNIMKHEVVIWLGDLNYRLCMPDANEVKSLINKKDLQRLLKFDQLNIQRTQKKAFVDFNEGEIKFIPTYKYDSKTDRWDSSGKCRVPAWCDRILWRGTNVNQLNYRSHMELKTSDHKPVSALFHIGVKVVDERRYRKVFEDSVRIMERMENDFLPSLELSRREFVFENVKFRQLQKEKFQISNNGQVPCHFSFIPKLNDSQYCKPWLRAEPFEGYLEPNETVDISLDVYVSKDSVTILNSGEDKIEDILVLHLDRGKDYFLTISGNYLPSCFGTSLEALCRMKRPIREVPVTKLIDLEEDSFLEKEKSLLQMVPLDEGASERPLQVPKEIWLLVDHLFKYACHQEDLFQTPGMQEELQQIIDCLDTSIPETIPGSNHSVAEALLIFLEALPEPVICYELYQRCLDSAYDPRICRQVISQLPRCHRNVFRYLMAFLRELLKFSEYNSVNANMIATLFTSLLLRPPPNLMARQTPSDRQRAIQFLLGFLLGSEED
Chain of Inositol polyphosphate 5-phosphatase OCRL (Homo sapiens), Q01968 G664D (Q01968 whole entry G664D): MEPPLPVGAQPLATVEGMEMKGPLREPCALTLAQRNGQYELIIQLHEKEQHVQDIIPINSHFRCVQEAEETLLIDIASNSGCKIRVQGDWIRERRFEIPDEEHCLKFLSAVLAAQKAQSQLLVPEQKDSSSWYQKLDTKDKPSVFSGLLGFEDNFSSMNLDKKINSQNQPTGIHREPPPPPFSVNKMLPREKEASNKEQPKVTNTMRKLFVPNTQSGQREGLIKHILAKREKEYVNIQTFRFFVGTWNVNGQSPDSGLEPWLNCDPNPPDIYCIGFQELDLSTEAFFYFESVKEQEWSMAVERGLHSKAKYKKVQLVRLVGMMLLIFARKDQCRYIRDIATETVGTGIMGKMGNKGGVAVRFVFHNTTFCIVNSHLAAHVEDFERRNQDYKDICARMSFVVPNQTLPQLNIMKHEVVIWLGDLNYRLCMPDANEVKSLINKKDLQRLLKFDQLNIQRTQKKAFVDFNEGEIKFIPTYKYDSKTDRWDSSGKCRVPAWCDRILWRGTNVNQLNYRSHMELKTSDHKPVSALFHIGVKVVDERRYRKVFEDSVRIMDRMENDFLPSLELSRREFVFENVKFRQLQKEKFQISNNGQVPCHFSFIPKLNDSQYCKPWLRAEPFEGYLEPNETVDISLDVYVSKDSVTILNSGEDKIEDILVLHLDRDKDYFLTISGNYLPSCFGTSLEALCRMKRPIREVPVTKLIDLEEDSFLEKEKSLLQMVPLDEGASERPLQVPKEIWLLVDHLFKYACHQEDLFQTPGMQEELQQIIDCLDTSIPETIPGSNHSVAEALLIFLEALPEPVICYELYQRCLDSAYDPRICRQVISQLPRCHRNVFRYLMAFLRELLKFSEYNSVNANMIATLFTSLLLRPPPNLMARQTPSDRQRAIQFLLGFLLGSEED
Chain of Inositol polyphosphate 5-phosphatase OCRL (Homo sapiens), Q01968 S564P (Q01968 whole entry S564P): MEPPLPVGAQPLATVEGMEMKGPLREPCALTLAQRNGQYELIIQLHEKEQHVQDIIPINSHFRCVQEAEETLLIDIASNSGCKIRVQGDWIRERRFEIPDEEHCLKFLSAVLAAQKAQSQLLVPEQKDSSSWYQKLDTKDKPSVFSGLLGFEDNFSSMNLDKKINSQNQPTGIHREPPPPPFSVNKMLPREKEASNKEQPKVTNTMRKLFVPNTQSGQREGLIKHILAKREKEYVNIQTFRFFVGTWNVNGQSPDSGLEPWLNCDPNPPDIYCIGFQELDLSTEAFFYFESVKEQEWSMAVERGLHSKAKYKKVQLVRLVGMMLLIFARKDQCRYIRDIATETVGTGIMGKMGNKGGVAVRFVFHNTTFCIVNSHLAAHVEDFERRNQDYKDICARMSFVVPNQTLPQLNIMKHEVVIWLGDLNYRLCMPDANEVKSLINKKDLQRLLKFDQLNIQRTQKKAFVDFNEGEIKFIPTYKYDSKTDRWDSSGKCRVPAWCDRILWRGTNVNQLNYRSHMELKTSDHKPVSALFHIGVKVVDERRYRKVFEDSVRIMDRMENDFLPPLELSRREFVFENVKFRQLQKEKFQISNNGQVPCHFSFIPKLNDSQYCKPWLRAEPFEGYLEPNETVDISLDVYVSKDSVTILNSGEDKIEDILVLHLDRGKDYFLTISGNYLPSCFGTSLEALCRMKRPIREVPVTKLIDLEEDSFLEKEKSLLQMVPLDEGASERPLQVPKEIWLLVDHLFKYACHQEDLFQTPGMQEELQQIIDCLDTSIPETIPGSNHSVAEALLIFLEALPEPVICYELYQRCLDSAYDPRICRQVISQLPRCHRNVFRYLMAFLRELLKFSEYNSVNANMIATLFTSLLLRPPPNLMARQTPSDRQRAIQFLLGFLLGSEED
Chain of clh1_human CLTC (Q00610 whole entry): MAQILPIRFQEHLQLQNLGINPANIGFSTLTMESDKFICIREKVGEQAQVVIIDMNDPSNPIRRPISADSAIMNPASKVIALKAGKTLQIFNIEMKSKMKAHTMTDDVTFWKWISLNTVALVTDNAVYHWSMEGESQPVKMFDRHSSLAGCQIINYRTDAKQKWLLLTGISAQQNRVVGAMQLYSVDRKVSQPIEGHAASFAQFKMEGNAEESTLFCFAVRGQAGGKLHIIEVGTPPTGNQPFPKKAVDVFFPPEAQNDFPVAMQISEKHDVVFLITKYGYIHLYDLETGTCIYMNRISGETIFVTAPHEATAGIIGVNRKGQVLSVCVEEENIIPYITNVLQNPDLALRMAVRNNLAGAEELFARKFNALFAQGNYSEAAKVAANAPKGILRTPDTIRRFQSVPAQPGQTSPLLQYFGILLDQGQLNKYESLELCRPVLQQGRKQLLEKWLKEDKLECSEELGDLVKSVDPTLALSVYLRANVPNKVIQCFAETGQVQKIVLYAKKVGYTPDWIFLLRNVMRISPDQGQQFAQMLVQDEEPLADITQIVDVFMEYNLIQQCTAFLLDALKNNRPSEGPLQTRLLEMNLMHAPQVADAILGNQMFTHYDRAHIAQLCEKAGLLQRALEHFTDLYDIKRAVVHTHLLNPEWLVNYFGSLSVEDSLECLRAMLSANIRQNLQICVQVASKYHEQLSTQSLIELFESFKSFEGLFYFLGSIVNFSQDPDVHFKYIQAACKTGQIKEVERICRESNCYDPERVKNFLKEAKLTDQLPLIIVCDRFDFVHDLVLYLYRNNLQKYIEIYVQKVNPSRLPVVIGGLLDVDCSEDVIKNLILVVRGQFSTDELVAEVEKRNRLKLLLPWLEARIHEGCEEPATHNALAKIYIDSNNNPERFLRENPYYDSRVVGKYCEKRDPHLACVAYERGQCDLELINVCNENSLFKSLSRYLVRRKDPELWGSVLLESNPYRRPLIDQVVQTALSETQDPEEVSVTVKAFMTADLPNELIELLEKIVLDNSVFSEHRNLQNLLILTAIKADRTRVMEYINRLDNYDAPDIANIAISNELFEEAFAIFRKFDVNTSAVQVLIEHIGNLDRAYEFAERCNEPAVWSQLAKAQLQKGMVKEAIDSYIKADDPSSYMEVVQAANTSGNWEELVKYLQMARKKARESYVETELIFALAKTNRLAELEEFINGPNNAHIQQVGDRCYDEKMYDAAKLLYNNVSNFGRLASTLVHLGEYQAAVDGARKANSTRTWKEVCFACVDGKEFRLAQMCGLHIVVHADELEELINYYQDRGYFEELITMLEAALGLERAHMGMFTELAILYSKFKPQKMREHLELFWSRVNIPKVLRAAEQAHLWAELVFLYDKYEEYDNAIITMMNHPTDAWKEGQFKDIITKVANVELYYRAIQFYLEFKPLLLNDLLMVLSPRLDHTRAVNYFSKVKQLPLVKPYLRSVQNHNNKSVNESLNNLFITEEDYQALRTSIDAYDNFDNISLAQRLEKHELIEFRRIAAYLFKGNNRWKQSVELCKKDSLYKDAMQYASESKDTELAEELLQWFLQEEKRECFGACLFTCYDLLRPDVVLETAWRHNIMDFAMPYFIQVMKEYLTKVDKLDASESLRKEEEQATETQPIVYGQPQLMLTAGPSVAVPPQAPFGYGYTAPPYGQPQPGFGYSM
Chain of rab6a_human RAB6A (P20340 whole entry, looked up): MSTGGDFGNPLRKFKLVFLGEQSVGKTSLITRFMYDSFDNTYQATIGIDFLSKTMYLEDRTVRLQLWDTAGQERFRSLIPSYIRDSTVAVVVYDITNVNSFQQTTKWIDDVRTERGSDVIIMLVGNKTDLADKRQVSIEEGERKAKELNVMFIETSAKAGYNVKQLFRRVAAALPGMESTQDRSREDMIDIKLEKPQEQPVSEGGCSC

Substance: Inositol polyphosphate 5-phosphatase OCRL (Homo sapiens), Q01968 D555E
effect of a mutation on the interaction (rab5a_human RAB5A [1]): decreasing interaction | effect of a mutation on the interaction (rab6a_human RAB6A [2]): decreasing interaction | effect of a mutation on the interaction (rab1a_human RAB1A [3]): disrupting interaction | effect of a mutation on the interaction (clh1_human CLTC [4]): decreasing interaction

Substance: Inositol polyphosphate 5-phosphatase OCRL (Homo sapiens), Q01968 N606K
effect of a mutation on the interaction (clh1_human CLTC [8]): increasing interaction | effect of a mutation on the interaction (rab6a_human RAB6A [9]): increasing interaction

Substance: Inositol polyphosphate 5-phosphatase OCRL (Homo sapiens), Q01968 P526H
effect of a mutation on the interaction (clh1_human CLTC [10]): increasing interaction | effect of a mutation on the interaction (rab6a_human RAB6A [11]): increasing interaction

Substance: Inositol polyphosphate 5-phosphatase OCRL (Homo sapiens), Q01968 S568G
effect of a mutation on the interaction (rab1a_human RAB1A [15]): increasing interaction | effect of a mutation on the interaction (rab5a_human RAB5A [16]): increasing interaction | effect of a mutation on the interaction (rab6a_human RAB6A [17]): decreasing interaction

Continued, values first:

effect of a mutation on the interaction (rab1a_human RAB1A [5]): disrupting interaction | effect of a mutation on the interaction (rab6a_human RAB6A [6]): disrupting interaction | effect of a mutation on the interaction (rab5a_human RAB5A [7]): decreasing interaction
Substance: Inositol polyphosphate 5-phosphatase OCRL (Homo sapiens), Q01968 G664D

effect of a mutation on the interaction (rab1a_human RAB1A [12]): disrupting interaction | effect of a mutation on the interaction (rab5a_human RAB5A [13]): decreasing interaction | effect of a mutation on the interaction (rab6a_human RAB6A [14]): disrupting interaction
Substance: Inositol polyphosphate 5-phosphatase OCRL (Homo sapiens), Q01968 S564P
